# Publication PMC12650144 (2025)
# B1: α1s II–III loop C region peptide (residues 720–765) [not stated] / DHPR β1a subunit, full length [mouse] (parent complex)
# chain 1: LKVDEFESNVNEVKDPYPSADFPGDDEEDEPEIPVSPRPRPLAELQ
# chain 2: not shown
# Variants of: B1
# Assay: intrinsic fluorescence binding (fluorescence quenching at 340 nm); read at the last titration point, 9 µM peptide; parent: 0.66; read off a plot
row,response,Variant
1,~0.93,"chain 1 P16A, chain 1 P18A, chain 1 P23A, chain 1 P31A, chain 1 P34A, chain 1 P37A, chain 1 P39A, chain 1 P41A"
